For assay [1], the target named is T1, human Siglec15-mouse Fc protein (human).
T1 construct: In house made
T1 chain: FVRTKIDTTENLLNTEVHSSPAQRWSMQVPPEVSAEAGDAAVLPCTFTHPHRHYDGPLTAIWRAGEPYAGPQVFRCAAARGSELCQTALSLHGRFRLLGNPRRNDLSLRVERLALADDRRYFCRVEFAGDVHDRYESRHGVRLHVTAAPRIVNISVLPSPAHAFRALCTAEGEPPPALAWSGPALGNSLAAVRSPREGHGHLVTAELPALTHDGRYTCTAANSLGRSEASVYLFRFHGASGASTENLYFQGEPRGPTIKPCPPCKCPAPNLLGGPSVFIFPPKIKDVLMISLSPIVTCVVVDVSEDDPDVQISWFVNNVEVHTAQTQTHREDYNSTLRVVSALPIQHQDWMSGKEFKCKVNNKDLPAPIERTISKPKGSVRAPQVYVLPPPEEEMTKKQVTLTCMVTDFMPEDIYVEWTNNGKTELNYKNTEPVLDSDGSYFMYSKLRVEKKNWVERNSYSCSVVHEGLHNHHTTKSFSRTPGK
Put plainly: cell based blocking FACS: human Siglec15-mouse Fc in solution, blocked ligand human LRRC4C on LRRC4C-3F12-1B9 cells. On the procedure: The activities of the anti-Siglec15 antibodies to block binding of Siglec15 protein to cell surface LRRC4C were evaluated by Flow Cytometry (FACS), using in house made LRRC4C-3F12-1B9 cells. Briefly, HEK-293 cells (ATCC #CRL-1573) were transfected with pCMV-T-P plasmid constructs with the nucleotide sequence encoding human LRRC4C (amino acid residues Met1-Ile640 of uniprot #Q9HCJ2) inserted between EcoRI and XbaI, following the instruction of lipofectamine 3000 transfection reagent (Thermo Fisher). A stable cell named LRRC4C-3F12-1B9 was chosen for subsequent cell based ligand-blocking assay.
Briefly, the anti-Siglec15 antibodies of the disclosure or controls were diluted with human Siglec15-mouse Fc protein (prepared in-house with SEQ ID NO: 26, 8 μg/ml […] in FACS buffer), starting at 66.67 nM with a 5-fold serial dilution, and incubated at room temperature for 40 minutes. Then, LRRC4C-3F12-1B9 cells were harvested from cell culture flasks, washed twice and re-suspended in PBS containing 2% v/v Fetal Bovine Serum (FACS buffer). Then, 1×10⁵ cells per well in 96 well-plates were incubated in 100 μL of the antibody/Siglec15-mouse Fc mixtures for 40 minutes at 4° C. […] Cells were washed twice and re-suspended in FACS buffer. Fluorescence was measured using a Becton Dickinson FACS Canto II-HTS equipment. Data was analyzed using Graphpad Prism software and IC₅₀ values were reported.

Assay [2] addresses T2, mouse Siglec15-his protein (mouse).
T2 construct: In house made
T2 chain: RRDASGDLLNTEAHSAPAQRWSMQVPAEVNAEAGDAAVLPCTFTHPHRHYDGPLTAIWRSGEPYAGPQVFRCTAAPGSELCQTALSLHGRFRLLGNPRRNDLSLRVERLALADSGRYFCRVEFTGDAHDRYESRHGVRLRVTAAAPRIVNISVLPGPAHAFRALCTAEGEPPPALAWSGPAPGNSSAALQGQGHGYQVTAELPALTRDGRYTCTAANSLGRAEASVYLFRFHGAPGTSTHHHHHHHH
Nature of the assay: indirect ELISA on coated mouse Siglec15-his.

Assay [3] has as its target T3, recombinant human Siglec15-his protein (human, UniProt Q6ZMC9 20-263).
T3 construct: In house made; Biotin-labeled in the capture ELISA
T3 sequence: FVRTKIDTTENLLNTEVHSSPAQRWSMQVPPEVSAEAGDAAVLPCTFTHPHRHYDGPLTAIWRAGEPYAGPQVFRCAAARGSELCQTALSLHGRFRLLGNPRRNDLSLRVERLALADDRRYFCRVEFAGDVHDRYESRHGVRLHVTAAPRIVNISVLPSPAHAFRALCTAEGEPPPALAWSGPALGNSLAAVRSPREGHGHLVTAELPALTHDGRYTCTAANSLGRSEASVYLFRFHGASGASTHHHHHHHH
Nature of the assay: capture ELISA, captured antibody, biotin-labeled human Siglec15-his in solution. On the procedure:
Briefly, 96-well plates were coated with 100 μl of 2 μg/ml AffiniPure Goat Anti-Human IgG F(ab′)₂ fragment specific (Jackson Immuno Research, Cat #109-005-097) in PBS for 2 hours at 37° C. Plates were washed once with wash buffer (PBS+0.05% v/v Tween-20, PBST) and then blocked with 200 μl blocking buffer (5% w/v non-fatty milk in PBST) overnight at 4° C. Plates were washed 4 times and respectively incubated with 100 μl serially diluted anti-Siglec15 antibodies of the disclosure, the benchmark and hIgG (human immunoglobulin (pH4) for intravenous injection, Hualan Biological Engineering Inc.), 5-fold dilution in 2.5% w/v non-fatty milk in PBST starting at 66.7 nM, for 40 minutes at 37° C., and then washed 4 times again. Plates containing captured antibodies were incubated with 100 μl biotin-labeled human Siglec15-his protein (in house made with SEQ ID NO: 20, 145 ng/ml in 2.5% w/v non-fatty milk in PBST) for 40 minutes at 37° C., washed 4 times, and incubated with streptavidin conjugated HRP (1:10000 dilution in PBST, Jackson Immuno Research, Cat #016-030-084, 100 μl/well) for 40 minutes at 37° C. After a final wash, plates were incubated with 100 μl/well ELISA substrate TMB (Innoreagents, Cat #TMB-S-002). The reaction was stopped in 4 minutes at room temperature with 50 μl/well 1M H₂SO₄, and the absorbance of each well was read on a microplate reader using dual wavelength mode with 450 nm for TMB and 630 nm as the reference wavelength, then the OD (450-630) values were plotted against antibody concentration. Data was analyzed using Graphpad Prism software and EC₅₀ values were reported.
On the technique in general: ELISA stands for enzyme-linked immunosorbent assay.

Drawing on patent US20230106715A1 (BIOSION, published 2023), this text covers IC50 and EC50 for six molecules.

B1: A2A5C7E8 (antibody, V domains shown)
VH: EVQLVQSGAEVKKPGESLRISCKGSGYSFTTYWISWVRQMPGKGLEWMGLIDPSDSYTNYSPSFQGHVTISTDKSISTAYLQWSSLKASDTAMYYCARGGYYGSEEDYWGQGTLVTVSS
VL: EIVLTQSPGTLSLSPGERATLSCRASQSVSSSRLAWFQQKSGQAPRLLIFDASSRATGIPDRFSGSGSGTDFTLTISRLEPEDFAVYYCQQYGSSPRTFGQGTKVEFK
notes: Fully human antibody from transgenic mouse hybridoma; also called A2A5C7E8-1
A word on the IC50: it is the concentration that gives 50% inhibition. The low end stands for greater potency in that assay, the high end for weaker potency in that assay. The molecule B1 displayed an IC50 in assay [1] of 2.07 nM. In other words, the single-digit nanomolar range.

B2: B2D7H7A3C1 (antibody, V domains shown)
VH: QVQLQQSGAELVRPGTSVQMSCKAAGYTFTNYWIGWVKQRPGHGLEWVGDIHPGINYTNNNEKFRGKATLTADTSSNTAYMQLRGLTSDDSAIYYCARVDYDYDGSYIMDYWGQGTSVTVSS
VL: QIVLSQSPALLSASPGEKVTMTCRASSSVSYMYWYQQKPGSSPKPWIYATSNLTSGVPARFSGSGSGTSYSLTISRVEAEDAATYFCQQWNSKPWTFGGGSKLEIR
notes: Mouse monoclonal antibody from hybridoma; also called mouse B2D7H7A3C1
As a reminder, the EC50 is the concentration needed to bring the measured effect to its halfway point. For B2, the EC50 in assay [2] was determined as 0.994 nM; in assay [3], 0.101 nM.

B3: B2H2H1H7 (antibody, V domains shown)
VH: QVQLQQSGAELVRPGTSVQMSCKAAGYTFTNYWIGWVKQRPGHGLEWVGDIHPGINYTNNNEKFRGKATLTADTSSSTAYMQLRGLTSDDSAIYYCARVDYDYDGSYIMDYWGQGTSVTVSS
VL: QIILSQSPALLSASPGEKVTMTCRASSSVSYMYWYQQKPGSSPKPWIYATSNLTSGVPARFSGSGSGTSYSLTISRVEAEDAATYFCQQWNSKPWTFGGGSRLEIR
notes: Mouse monoclonal antibody from hybridoma; also called mouse B2H2H1H7; B2H2H1A7
Take B3: the EC50 in assay [2] was found to be 0.651 nM; in assay [3] it was 0.0937 nM.

B4: B2G12H3E8 (antibody, V domains shown)
VH: QVQLKQSGAELVRPGTSVQMSCKAVGYTFTNYWIGWVKQRPGHGLEWVGDIHPGINYTNNNEKFRGKATLTADTSSSTAYMQLRGLTSDDSAIYYCARVDYDYDGSYIMDYWGQGTSVTVSS
VL: QIVLSQSPALLSASPGEKVTMTCRASSSVSYMYWYQQKPGSSPKPWIYATSNLTSGVPARFSGSGSGTSYSLTISRVEAEDAATYFCQQWNSKPWTFGGGSKLEIR
notes: Mouse monoclonal antibody from hybridoma; also called mouse B2G12H3E8
For the molecule B4, the values for the EC50 in assay [2] and in assay [3] were 0.408 nM and 0.0859 nM, respectively.

B5: anti-Siglec15 benchmark (ch5G12) (antibody, human IgG1, kappa, V domains shown)
VH: QVQLQQPGAELVKPGASVKMSCKASGYTFTSYWITWVIQRPGQGLEWIGDIYCGSDTMHYNEKFKNKATLTVDTSSSTAYMQLSSLTSEDSAVYYCARWWDYGSSYDYFDYWGQGTTLTVSS
VL: DIKMTQSPSSMYASLGERVTITCKASQDINSYLSWFQQKPGKSPKTLIYRANRLVDGVPSRFSGSGSGQDYSLTISSLEYEDMGIYYCLQYDEFPYTFGGGTKLEIKR
notes: ch5G12 (US 20190202912A1); also called BM; Siglec15-ch5G9
As for B5, the EC50 amounted to 0.211 nM in assay [2] and 1.64 nM in assay [3]. This molecule also gave an IC50 in assay [1] of 0.586 nM.

B6: A1E10G7H9 (antibody, V domains shown)
VH: QVQLQESGPGLVKPSGTLSLTCAVSGGSISSSNWWHWVRQPPGKGLEWIGEIYHSGNTNYKPSLKSRVTISVDKSKNQFSLKLSSVTAADTAVYYCARDEGNGWSNAFDIWGQGTMVTVSS
VL: ENVLTQSPGTLSLSPGERVTLSCRASQSVSSSYLAWYQQKPGQAPRFLIYGASGGATGIPDRFSGSGSGTDFTLTISRLEPEDFAVYYCQQYGSSPITFGQGTRLEIK
notes: Fully human antibody from transgenic mouse hybridoma
On to B6, for which the IC50 in assay [1] was 3.78 nM.
